# Target: T1, Clp-protease subunit R (ClpR) from Synechococcus sp. (Synechococcus sp., UniProt Q9L4P4 1-228)
# T1 construct: ClpR, Clp-protease subunit R, Synechococcus sp., UniProtKB Q9L4P4; Stood in the crosslinked ClpCP3R complex; also called R-subunit; source: part of the Synechococcus ClpCP3R complex, obtained as described previously according to [20]
# T1 sequence (looked up): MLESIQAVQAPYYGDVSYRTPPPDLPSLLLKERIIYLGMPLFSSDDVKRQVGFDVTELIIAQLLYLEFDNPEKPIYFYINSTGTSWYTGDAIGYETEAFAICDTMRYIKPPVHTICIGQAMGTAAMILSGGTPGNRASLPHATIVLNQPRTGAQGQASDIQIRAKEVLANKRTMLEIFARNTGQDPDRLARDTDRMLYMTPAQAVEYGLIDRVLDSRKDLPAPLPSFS
# Experiment: cross-linking; Clp-protease multisubunit complex (ClpCP3R) crosslinked with H12/D12 BS3; tryptic digest separated into 192 fractions, LC-MALDI-TOF/TOF, FINDX (7 ppm, intensity parameter 0.22), MSMS validation
# Conditions: both partners purified
binder,measurement,value
"Clp-protease subunit P3 (ClpP3) from Synechococcus sp. (natural protein, UniProt Q9L4P3 1-199, looked up, ClpP3, Clp-protease subunit P, Synechococcus sp., UniProtKB Q9L4P3; Stood in the crosslinked ClpCP3R complex (P3 and R in a proteolytic core of two heptameric rings, ClpC in a hexameric ring); also called P3-subunit; source: part of the Synechococcus ClpCP3R complex, obtained as described previously according to [20]; not shown: His6, C-terminal, kept) MPIGVPSVPYRLPGSSFERWIDIYNRLAMERIIFLGQEVTDGLANSIVAQLLYLDSEDSSKPIYLYINSPGGSVTAGMAIYDTMQYIKSPVITICLGLAASMGAFLLCAGSKGKRLALPHSRIMIHQPLGGTGRRQASDIEIEAKEILRIKKLLNQIMADRTGQPLEKIEKDTDRDYFMSAEEAREYGLIDQVIAERPV",binding result,binds
